US20090208416A1

Key:
[1] = target: NKG2A on rhesus monkey (Macaca mulatta) NK cells (rhesus monkey (Macaca mulatta)) (UniProt Q9MZJ3); test: FACS rhesus whole blood, animal O967
[2] = target: NKG2A on rhesus monkey (Macaca mulatta) NK cells (rhesus monkey (Macaca mulatta)) (UniProt Q9MZJ3); test: FACS rhesus whole blood, animal 31828
[3] = target: NKG2A on rhesus monkey (Macaca mulatta) NK cells (rhesus monkey (Macaca mulatta)) (UniProt Q9MZJ3); test: FACS rhesus whole blood, animal 34459
[4] = target: NKG2A on rhesus monkey (Macaca mulatta) NK cells (rhesus monkey (Macaca mulatta)) (UniProt Q9MZJ3); test: FACS rhesus whole blood, animal R00013
[5] = target: NKG2A on rhesus monkey (Macaca mulatta) NK cells (rhesus monkey (Macaca mulatta)) (UniProt Q9MZJ3); test: FACS rhesus whole blood, animal R00023
[6] = target: NKG2A on rhesus monkey (Macaca mulatta) NK cells (rhesus monkey (Macaca mulatta)) (UniProt Q9MZJ3); test: FACS rhesus whole blood, animal R00025
[7] = target: NKG2A on rhesus monkey (Macaca mulatta) NK cells (rhesus monkey (Macaca mulatta)) (UniProt Q9MZJ3); test: FACS rhesus whole blood, animal R00037
[8] = target: NKG2A on rhesus monkey (Macaca mulatta) NK cells (rhesus monkey (Macaca mulatta)) (UniProt Q9MZJ3); test: FACS rhesus whole blood, animal R00061
[9] = target: NKG2A on rhesus monkey (Macaca mulatta) NK cells (rhesus monkey (Macaca mulatta)) (UniProt Q9MZJ3); test: FACS rhesus whole blood, animal R00077
[10] = target: NKG2A on rhesus monkey (Macaca mulatta) NK cells (rhesus monkey (Macaca mulatta)) (UniProt Q9MZJ3); test: FACS rhesus whole blood, animal R00093
[11] = target: NKG2A on cynomolgus monkey NK cells (cynomolgus monkey) (UniProt Q68VD2); test: FACS cynomolgus whole blood, animal 1221
[12] = target: NKG2A on cynomolgus monkey NK cells (cynomolgus monkey) (UniProt Q68VD2); test: FACS cynomolgus whole blood, animal M859
[13] = target: NKG2A on cynomolgus monkey NK cells (cynomolgus monkey) (UniProt Q68VD2); test: FACS cynomolgus whole blood, animal R390
[14] = target: NKG2A on cynomolgus monkey NK cells (cynomolgus monkey) (UniProt Q68VD2); test: FACS cynomolgus whole blood, animal T270
[15] = target: NKG2A on cynomolgus monkey NK cells (cynomolgus monkey) (UniProt Q68VD2); test: FACS cynomolgus whole blood, animal AK729
[16] = target: NKG2A on cynomolgus monkey NK cells (cynomolgus monkey) (UniProt Q68VD2); test: FACS cynomolgus whole blood, animal AL210
[17] = target: NKG2A on rhesus monkey (Macaca mulatta) NK cells (rhesus monkey (Macaca mulatta)) (UniProt Q9MZJ3); test: FACS rhesus whole blood NK cells, animal 201
[18] = target: NKG2A on rhesus monkey (Macaca mulatta) NK cells (rhesus monkey (Macaca mulatta)) (UniProt Q9MZJ3); test: FACS rhesus whole blood NK cells, animal MM031
[19] = target: NKG2A on rhesus monkey (Macaca mulatta) NK cells (rhesus monkey (Macaca mulatta)) (UniProt Q9MZJ3); test: FACS rhesus whole blood NK cells, animal N0401
[20] = target: NKG2A on rhesus monkey (Macaca mulatta) NK cells (rhesus monkey (Macaca mulatta)) (UniProt Q9MZJ3); test: FACS rhesus whole blood NK cells, animal P9215
[21] = target: NKG2A on baboon NK cells (baboon); test: FACS baboon whole blood NK cells, animal V857C
[22] = target: NKG2A on baboon NK cells (baboon); test: FACS baboon whole blood NK cells, animal V914B
[23] = target: NKG2A on baboon NK cells (baboon); test: FACS baboon whole blood NK cells, animal V9812
[24] = target: NKG2A on baboon NK cells (baboon); test: FACS baboon whole blood NK cells, animal V9914
[25] = target: NKG2A on baboon NK cells (baboon); test: FACS baboon whole blood NK cells, animal V9926
[26] = target: NKG2A on rhesus monkey (Macaca mulatta) NK cells (rhesus monkey (Macaca mulatta)) (UniProt Q9MZJ3); test: FACS rhesus whole blood, animal R00073 (5.6 kg)

UniProt Q9MZJ3, sequence (Q9MZJ3 whole entry): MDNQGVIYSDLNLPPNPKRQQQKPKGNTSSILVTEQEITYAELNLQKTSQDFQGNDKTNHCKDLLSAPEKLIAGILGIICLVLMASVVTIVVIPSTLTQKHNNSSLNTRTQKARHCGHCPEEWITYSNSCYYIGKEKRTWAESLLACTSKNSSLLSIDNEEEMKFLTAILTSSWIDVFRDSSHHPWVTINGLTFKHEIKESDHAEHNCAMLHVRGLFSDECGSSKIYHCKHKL
UniProt Q68VD2, sequence (Q68VD2 entry or part of it): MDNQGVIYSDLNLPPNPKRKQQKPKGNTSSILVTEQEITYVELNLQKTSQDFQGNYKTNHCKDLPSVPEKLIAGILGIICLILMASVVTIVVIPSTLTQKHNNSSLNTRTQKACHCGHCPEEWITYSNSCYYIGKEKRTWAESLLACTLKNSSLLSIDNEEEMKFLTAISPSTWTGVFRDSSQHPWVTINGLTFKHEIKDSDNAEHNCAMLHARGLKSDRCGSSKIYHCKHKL

With mouse IgG1 isotype control (antibody) the % NK+ [1] was 0.5%, the MFI [1] was 0.67 and the % NK+ [2] was 0.4%. For the same substance, the MFI [2] was 0.65, the % NK+ [3] was 1.4% and the MFI [3] was 0.76. The % NK+ [4] was 0.3%, the MFI [4] was 0.66 and the % NK+ [5] was 0.3%. The MFI [5] was 0.5, the % NK+ [6] was 0.7% and the MFI [6] was 0.45. For the same substance, the % NK+ [7] was 0.6%, the MFI [7] was 0.5 and the % NK+ [8] was 0.5%. The MFI [8] was 0.5, the % NK+ [9] was 0.4% and the MFI [9] was 0.41. For the same substance, the % NK+ [10] was 1%, the MFI [10] was 0.68 and the % NK+ [11] was 0.6%. The MFI [11] was 0.53, the % NK+ [12] was 0.2% and the MFI [12] was 0.51. It also gave a % NK+ [13] of 0.2%, an MFI [13] of 0.39 and a % NK+ [14] of 0.2%. It also gave an MFI [14] of 0.54, a % NK+ [15] of 0.3% and an MFI [15] of 0.6. The % NK+ [16] was 0.4%, the MFI [16] was 0.65 and the % [17] was 1.3%. The % [18] was 0.4%, the % [19] was 0.5% and the % [20] was 1.4%. The % [21] was 0.8%, the tot. MFI [21] was 1.4 and the % [22] was 0.4%. It also gave a tot. MFI [22] of 1.1, a % [23] of 1.3% and a tot. MFI [23] of 1.2. The % [24] was 0.1%, the tot. MFI [24] was 0.3 and the % [25] was 0.5%. It also gave a tot. MFI [25] of 0.2, a % NK+ [26] of 0.5% and an MFI [26] of 0.4.
